Source: PMC8660890

Target: recombinant β subunit of human MUC4 mucin (rMUC4β) (human)
Assay: native gel or EMSA; Blue Native PAGE of purified rMUC4β following thermal denaturation, non-reducing conditions; western blot with anti-His tag mAb

stoichiometry N: 2
Substance: recombinant β subunit of human MUC4 mucin (rMUC4β) (domain or fragment)
